± gives the standard deviation of the averaged measurements.
Test: total protein half-life in vivo (active degradation + dilution); higher = more stable protein
[1] = E. coli NCM3722 delta-clpP delta-lon delta-hslV, growth: N-lim chemostat, doubling time 6 h
[2] = E. coli NCM3722 delta-clpP, growth: N-lim chemostat, doubling time 6 h
[3] = E. coli NCM3722 delta-hslV, growth: N-lim chemostat, doubling time 6 h
[4] = E. coli NCM3722 delta-lon, growth: N-lim chemostat, doubling time 6 h
[5] = E. coli NCM3722 delta-smpB, growth: N-lim chemostat, doubling time 6 h
[6] = wild type E. coli NCM3722, growth: C-lim chemostat, doubling time 6 h
[7] = wild type E. coli NCM3722, growth: C-lim chemostat, doubling time 12 h
[8] = wild type E. coli NCM3722, growth: N-lim chemostat, doubling time 6 h
[9] = wild type E. coli NCM3722, growth: P-lim chemostat, doubling time 6 h
[10] = wild type E. coli NCM3722, growth: P-lim chemostat, doubling time 12 h
[11] = wild type E. coli NCM3722, growth: C-lim chemostat, doubling time 3 h
[12] = wild type E. coli NCM3722, growth: N-lim chemostat, doubling time 12 h

| Sequence | total protein half-life in vivo [1] [h] | total protein half-life in vivo [2] [h] | total protein half-life in vivo [3] [h] | total protein half-life in vivo [4] [h] | total protein half-life in vivo [5] [h] | total protein half-life in vivo [6] [h] | total protein half-life in vivo [7] [h] | total protein half-life in vivo [8] [h] | total protein half-life in vivo [9] [h] | total protein half-life in vivo [10] [h] | total protein half-life in vivo [11] [h] | total protein half-life in vivo [12] [h] |
| --- | --- | --- | --- | --- | --- | --- | --- | --- | --- | --- | --- | --- |
| MIVKRPVSASLARAFFYIVLLSILSTGIALLTLASSLRDAEAINIAGSLRMQSYRLGYDLQSGSPQLNAHRQLFQQALHSPVLTNLNVWYVPEAVKTRYAHLNANWLEMNNRLSKGDLPWYQANINNYVNQIDLFVLALQHYAERKMLLVVAISLAGGIGIFTLVFFTLRRIRHQVVAPLNQLVTASQRIEHGQFDSPPLDTNLPNELGLLAKTFNQMSSELHKLYRSLEASVEEKTRDLHEAKRRLEVLYQCSQALNTSQIDVHCFRHILQIVRDNEAAEYLELNVGENWRISEGQPNPELPMQILPVTMQETVYGELHWQNSHVSSSEPLLNSVSSMLGRGLYFNQAQKHFQQLLLMEERATIARELHDSLAQVLSYLRIQLTLLKRSIPEDNATAQSIMADFSQALNDAYRQLRELLTTFRLTLQQADLPSALREMLDTLQNQTSAKLTLDCRLPTLALDAQMQVHLLQIIREAVLNAMKHANASEIAVSCVTAPDGNHTVYIRDNGIGIGEPKEPEGHYGLNIMRERAERLGGTLTFSQPSGGGTLVSISFRSAEGEESQLM | 7.015 ± 0.027 | 6.09 ± 0.081 | 6.03 ± 0.085 | 6.24 ± 0.29 | 5.91 ± 0.37 | 6.73 ± 0.72 | 12.6 ± 0.26 | 6.0563 ± 0.0037 | 5.97 ± 0.28 | 11.7 ± 2.1 |  |  |
| MIWIMLATLAVVFVVGFRVLTSGARKAIRRLSDRLNIDVVPVESMVDQMGKSAGDEFLRYLHRPDESHLQNAAQVLLIWQIVIVDGSEQNLLQWHRILQKARLAAPITDAQVRLALGFLRETEPEMQDINAFQMRYNAFFQPAEGVHWLH [P0ADL3] | 5.96 ± 1.4 | 5.141 ± 0.016 | 4.75 |  | 4.7 ± 0.11 | 5.07 ± 0.086 | 10.9 ± 2.9 | 4.71 | 4.65 ± 0.24 | 9.29 ± 1.7 | 2.98 ± 0.21 | 10.8 |
| MKADNPFDLLLPAAMAKVAEEAGVYKATKHPLKTFYLAITAGVFISIAFVFYITATTGTGTMPFGMAKLVGGICFSLGLILCVVCGADLFTSTVLIVVAKASGRITWGQLAKNWLNVYFGNLVGALLFVLLMWLSGEYMTANGQWGLNVLQTADHKVHHTFIEAVCLGILANLMVCLAVWMSYSGRSLMDKAFIMVLPVAMFVASGFEHSIANMFMIPMGIVIRDFASPEFWTAVGSAPENFSHLTVMNFITDNLIPVTIGNIIGGGLLVGLTYWVIYLRENDHH [P0AC23] | 6.43 ± 0.36 | 7.27 ± 0.55 |  | 5.87 ± 0.32 | 6.66 ± 1.2 |  |  | 6.07 ± 0.59 | 6.402 ± 0.033 |  | 3.67 | 11.5 ± 0.42 |
| MKAFWRNAALLAVSLLPFSSANALALQAKQYGDFDRYVLALSWQTGFCQSQHDRNRNERDECRLQTETTNKADFLTVHGLWPGLPKSVAARGVDERRWMRFGCATRPIPNLPEARASRMCSSPETGLSLETAAKLSEVMPGAGGRSCLERYEYAKHGACFGFDPDAYFGTMVRLNQEIKESEAGKFLADNYGKTVSRRDFDAAFAKSWGKENVKAVKLTCQGNPAYLTEIQISIKADAINAPLSANSFLPQPHPGNCGKTFVIDKAGY | 5.86 ± 0.29 |  | 6.73 ± 0.69 | 6.91 ± 0.17 | 5.96 ± 0.5 | 6.59 ± 1.8 |  | 5.72 ± 0.6 | 5.74 ± 0.09 |  | 2.91 ± 0.23 | 12.8 ± 0.28 |
| MKALHFGAGNIGRGFIGKLLADAGIQLTFADVNQVVLDALNARHSYQVHVVGETEQVDTVSGVNAVSSIGDDVVDLIAQVDLVTTAVGPVVLERIAPAIAKGQVKRKEQGNESPLNIIACENMVRGTTQLKGHVMNALPEDAKAWVEEHVGFVDSAVDRIVPPSASATNDPLEVTVETFSEWIVDKTQFKGALPNIPGMELTDNLMAFVERKLFTLNTGHAITAYLGKLAGHQTIRDAILDEKIRAVVKGAMEESGAVLIKRYGFDADKHAAYIQKILGRFENPYLKDDVERVGRQPLRKLSAGDRLIKPLLGTLEYGLPHKNLIEGIAAAMHFRSEDDPQAQELAALIADKGPQAALAQISGLDANSEVVSEAVTAYKAMQ | 5.84 ± 2 | 4.85 ± 0.21 | 5.32 ± 0.44 | 4.91 ± 0.1 | 4.6 ± 0.39 | 6.18 ± 0.63 | 10.8 ± 1.2 | 4.86 ± 0.35 | 6.02 ± 0.068 | 11.6 ± 0.34 |  | 8.39 ± 0.13 |
| MKALTARQQEVFDLIRDHISQTGMPPTRAEIAQRLGFRSPNAAEEHLKALARKGVIEIVSGASRGIRLLQEEEEGLPLVGRVAAGEPLLAQQHIEGHYQVDPSLFKPNADFLLRVSGMSMKDIGIMDGDLLAVHKTQDVRNGQVVVARIDDEVTVKRLKKQGNKVELLPENSEFKPIVVDLRQQSFTIEGLAVGVIRNGDWL [P0A7C2] | 3.01 ± 0.14 | 2.31 ± 0.15 | 3.18 ± 0.11 | 3.9 ± 0.1 | 3.03 ± 0.12 | 3.21 ± 0.11 | 4.65 ± 0.17 | 3.25 ± 0.28 | 2.68 ± 0.22 | 4.77 ± 0.42 | 1.91 ± 0.16 | 4.784 ± 0.043 |
| MKAPGLPADQQFFADLFSGLVLNPQLLGRVWFASQPASLPVGSLCIDFPRLDIVLRGEYGNLLEAKQQRLVEGEMLFIPARAANLPVNNKPVMLLSLVFAPTWLGLSFYDSRTTSLLHPARQIQLPSLQRGEGEAMLTALTHLSRSPLEQNIIQPLVLSLLHLCRSVVNMPPGNSQPRGDFLYHSICNWVQDNYAQPLTRESVAQFFNITPNHLSKLFAQHGTMRFIEYVRWVRMAKARMILQKYHLSIHEVAQRCGFPDSDYFCRVFRRQFGLTPGEYSARFQG | 5.03 |  |  |  |  | 1.83 |  |  |  |  |  |  |
| MKATKLVLGAVILGSTLLAGCSSNAKIDQLSSDVQTLNAKVDQLSNDVNAMRSDVQAAKDDAARANQRLDNMATKYRK | 5.79 ± 1.4 | 6.38 ± 0.67 | 5.95 ± 0.4 |  | 5.03 ± 0.051 | 4.92 ± 0.76 | 11.2 ± 3.2 | 5.81 ± 0.7 | 5.66 ± 0.3 | 12.1 ± 0.34 | 3.11 ± 0.35 | 11.7 ± 3.1 |
| MKDERRPICEVVAESIERLIIDGVLKVGQPLPSERRLCEKLGFSRSALREGLTVLRGRGIIETAQGRDSRVARLNRVQDTSPLIHLFSTQPRTLYDLLDVRALLEGESARLAATLGTQADFVVITRCYEKMLAASENNKEISLIEHAQLDHAFHLAICQASHNQVLVFTLQSLTDLMFNSVFASVNNLYHRPQQKKQIDRQHARIYNAVLQRLPHVAQRAARDHVRTVKKNLHDIELEGHHLIRSAVPLEMNLS [P0ACL5] | 4.767 ± 0.025 | 1.35 |  | 1.21 | 1.37 ± 0.029 | 2.15 ± 0.25 | 2.35 ± 0.16 | 1.21 ± 0.14 | 1.56 ± 0.22 | 2.65 ± 0.72 | 1.3 ± 0.1 | 1.68 ± 0.18 |
| MKDVVIVGALRTPIGCFRGALAGHSAVELGSLVVKALIERTGVPAYAVDEVILGQVLTAGAGQNPARQSAIKGGLPNSVSAITINDVCGSGLKALHLATQAIQCGEADIVIAGGQENMSRAPHVLTDSRTGAQLGNSQLVDSLVHDGLWDAFNDYHIGVTAENLAREYGISRQLQDAYALSSQQKARAAIDAGRFKDEIVPVMTQSNGQTLVVDTDEQPRTDASAEGLARLNPSFDSLGSVTAGNASSINDGAAAVMMMSEAKARALNLPVLARIRAFASVGVDPALMGIAPVYATRRCLERVGWQLAEVDLIEANEAFAAQALSVGKMLEWDERRVNVNGGAIALGHPIGASGCRILVSLVHEMVKRNARKGLATLCIGGGQGVALTIERDE | 5.29 ± 0.14 |  |  |  |  | 2.66 ± 0.38 | 3.57 ± 0.4 |  | 0.858 | 2 ± 0.37 | 1.35 ± 0.2 |  |
| MKELVVVAIGGNSIIKDNASQSIEHQAEAVKAVADTVLEMLASDYDIVLTHGNGPQVGLDLRRAEIAHKREGLPLTPLANCVADTQGGIGYLIQQALNNRLARHGEKKAVTVVTQVEVDKNDPGFAHPTKPIGAFFSDSQRDELQKANPDWCFVEDAGRGYRRVVASPEPKRIVEAPAIKALIQQGFVVIGAGGGGIPVVRTDAGDYQSVDAVIDKDLSTALLAREIHADILVITTGVEKVCIHFGKPQQQALDRVDIATMTRYMQEGHFPPGSMLPKIIASLTFLEQGGKEVIITTPECLPAALRGETGTHIIKT |  |  |  |  |  | 5.03 |  |  |  |  | 2.78 ± 1.3 |  |
| MKENNLNRVIGWSGLLLTSLLSTSALADNIGTSAEELGLSDYRHFVIYPRLDKALKAQKNNDEATAIREFEYIHQQVPDNIPLTLYLAEAYRHFGHDDRARLLLEDQLKRHPGDARLERSLAAIPVEVKSVTTVEELLAQQKACDAAPTLRCRSEVGQNALRLAQLPVARAQLNDATFAASPEGKTLRTDLLQRAIYLKQWSQADTLYNEARQQNTLSAAERRQWFDVLLAGQLDDRILALQSQGIFTDPQSYITYATALAYRGEKARLQHYLIENKPLFTTDAQEKSWLYLLSKYSANPVQALANYTVQFADNRQYVVGATLPVLLKEGQYDAAQKLLATLPANEMLEERYAVSVATRNKAEALRLARLLYQQEPANLTRLDQLTWQLMQNEQSREAADLLLQRYPFQGDARVSQTLMARLASLLESHPYLATPAKVAILSKPLPLAEQRQWQSQLPGIADNCPAIVRLLGDMSPSYDAAAWNRLAKCYRDTLPGVALYAWLQAEQRQPSAWQHRAVAYQAYQVEDYATALAAWQKISLHDMSNEDLLAAANTAQAAGNGAARDRWLQQAEKRGLGSNALYWWLHAQRYIPGQPELALNDLTRSINIAPSANAYVARATIYRQRHNVPAAVSDLRAALELEPNNSNTQAALGYALWDSGDIAQSREMLEPAHKGLPDDPALIRQLAYVNQRLDDMPATQHYARLVIDDIDNQALITPLTPEQNQQRFNFRRLHEEVGRRWTFSFDSSIGLRSGAMSTANNNVGGAAPGKSYRSYGQLEAEYRIGRNMLLEGDLLSVYSRVFADTGENGVMMPVKNPMSGTGLRWKPLRDQIFFIAVEQQLPLNGQNGASDTMLRASASFFNGGKYSDEWHPNGSGWFAQNLYLDAAQYIRQDIQAWTADYRVSWHQKVANGQTIEPYAHVQDNGYRDKGTQGAQLGGVGVRWNIWTGETHYDAWPHKVSLGVEYQHTFKAINQRNGERNNAFLTIGVHW |  | 6.61 ± 0.31 |  | 6.08 ± 0.15 | 5.92 ± 0.22 | 6.45 ± 0.45 | 11.31 ± 0.082 | 6.193 ± 0.047 | 5.88 ± 0.08 |  |  | 12.7 ± 1 |
| MKEVEKNEIKRLSDRLDAIRHQQADLSLVEAADKYAELEKEKATLEAEIARLREVHSQKLSKEAQKLMKMPFQRAITKKEQADMGKLKKSVRGLVVVHPMTALGREMGLQEMTGFSKTAF [P0ADK8] | 6.16 ± 1.2 | 4.37 ± 0.35 | 4.65 ± 0.78 | 5.34 ± 1.4 | 4.26 ± 0.64 | > 8 | 9.91 ± 3.4 | 3.91 ± 0.96 | 3.5 ± 0.53 | 6.29 ± 0.48 |  | 6.76 ± 1.6 |

— the supplement of paper PMC11246515
